# Test results published in patent US20200199241A1 (Chugai, published 2020).
# Substitutions are numbered along the chain they refer to. Numbers in names are those of the source.
# T1: human FcγRIIb (human, UniProt P31994 43-217, limits assumed)
# T1 construct: also called FcgRIIb; hFcgRIIb
# T1 sequence: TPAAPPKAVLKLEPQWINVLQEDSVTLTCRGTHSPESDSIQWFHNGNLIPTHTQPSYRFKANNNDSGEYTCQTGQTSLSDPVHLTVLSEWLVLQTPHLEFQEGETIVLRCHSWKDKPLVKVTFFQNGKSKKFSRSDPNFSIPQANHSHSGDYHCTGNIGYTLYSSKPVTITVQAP
# T2: human FcγRIIa(H) (human, UniProt P12318 36-217)
# T2 construct: also called FcgRIIaH; hFcgRIIa(H)
# T2 sequence: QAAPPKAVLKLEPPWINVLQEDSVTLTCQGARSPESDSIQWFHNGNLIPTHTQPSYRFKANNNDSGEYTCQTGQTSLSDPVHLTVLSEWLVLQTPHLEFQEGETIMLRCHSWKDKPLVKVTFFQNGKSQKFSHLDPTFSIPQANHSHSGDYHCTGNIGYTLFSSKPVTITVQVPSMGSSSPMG
# T3: human FcγRIIa(R) (human, UniProt P12318 36-217)
# T3 construct: also called FcgRIIaR; hFcgRIIa(R)
# T3 chain: T2 sequence with H133R
# B1: GpH7-B3 P329Q/GpL16-k0 (antibody, human IgG1)
# heavy: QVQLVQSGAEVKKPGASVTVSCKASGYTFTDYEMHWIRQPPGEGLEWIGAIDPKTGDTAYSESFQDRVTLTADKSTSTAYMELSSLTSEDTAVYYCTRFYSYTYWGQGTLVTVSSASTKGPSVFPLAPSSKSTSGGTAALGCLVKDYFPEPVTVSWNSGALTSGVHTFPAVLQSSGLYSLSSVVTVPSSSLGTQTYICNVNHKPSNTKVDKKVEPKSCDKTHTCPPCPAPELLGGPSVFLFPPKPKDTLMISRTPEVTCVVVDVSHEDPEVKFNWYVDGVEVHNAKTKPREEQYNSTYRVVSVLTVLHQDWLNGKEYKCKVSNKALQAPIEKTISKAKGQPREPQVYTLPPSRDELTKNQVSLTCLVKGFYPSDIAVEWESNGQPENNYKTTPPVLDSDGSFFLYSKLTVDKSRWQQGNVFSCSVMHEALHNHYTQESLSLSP
# light: DIVMTQSPLSLPVTPGEPASISCQASESLVHSNRNTYLHWYLQKPGQSPQLLIYKVSNRFSGVPDRFSGSGSGTDFTLKISRVEAEDVGVYYCSQNTHVPPTFGQGTKVEIE
# notes: B3 variant; copies: 2 + 2
# B2: GpH7-B3 P329R/GpL16-k0 (antibody, human IgG1)
# heavy: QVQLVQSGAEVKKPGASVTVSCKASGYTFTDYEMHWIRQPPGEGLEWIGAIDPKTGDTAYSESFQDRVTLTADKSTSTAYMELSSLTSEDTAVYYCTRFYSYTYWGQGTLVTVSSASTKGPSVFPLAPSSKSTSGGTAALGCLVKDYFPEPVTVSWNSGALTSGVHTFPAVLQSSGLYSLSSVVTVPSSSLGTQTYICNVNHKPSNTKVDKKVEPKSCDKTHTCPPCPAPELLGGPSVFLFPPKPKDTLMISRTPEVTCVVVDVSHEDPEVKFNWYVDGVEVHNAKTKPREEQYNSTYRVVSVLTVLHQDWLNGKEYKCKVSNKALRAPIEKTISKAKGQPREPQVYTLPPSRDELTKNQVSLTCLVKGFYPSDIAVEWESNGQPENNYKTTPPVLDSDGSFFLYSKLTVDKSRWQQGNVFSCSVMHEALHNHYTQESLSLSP
# light: B1 light
# notes: B3 variant; copies: 2 + 2
# B3: GpH7-B3 S298K/GpL16-k0 (antibody, human IgG1)
# heavy: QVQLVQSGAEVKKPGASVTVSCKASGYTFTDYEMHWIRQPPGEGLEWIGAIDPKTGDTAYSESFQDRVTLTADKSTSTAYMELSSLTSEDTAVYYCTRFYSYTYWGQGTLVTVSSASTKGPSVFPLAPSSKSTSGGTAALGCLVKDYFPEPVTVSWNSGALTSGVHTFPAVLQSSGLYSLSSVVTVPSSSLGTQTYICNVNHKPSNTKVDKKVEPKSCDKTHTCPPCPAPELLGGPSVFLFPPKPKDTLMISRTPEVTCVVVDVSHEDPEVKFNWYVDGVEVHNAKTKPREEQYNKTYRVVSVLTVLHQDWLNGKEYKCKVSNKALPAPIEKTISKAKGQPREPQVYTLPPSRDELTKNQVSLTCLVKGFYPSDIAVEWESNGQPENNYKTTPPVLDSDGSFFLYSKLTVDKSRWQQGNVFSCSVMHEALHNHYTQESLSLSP
# light: B1 light
# notes: B3 variant; copies: 2 + 2
# B4: GpH7-B3 Q295N/GpL16-k0 (antibody, human IgG1)
# heavy: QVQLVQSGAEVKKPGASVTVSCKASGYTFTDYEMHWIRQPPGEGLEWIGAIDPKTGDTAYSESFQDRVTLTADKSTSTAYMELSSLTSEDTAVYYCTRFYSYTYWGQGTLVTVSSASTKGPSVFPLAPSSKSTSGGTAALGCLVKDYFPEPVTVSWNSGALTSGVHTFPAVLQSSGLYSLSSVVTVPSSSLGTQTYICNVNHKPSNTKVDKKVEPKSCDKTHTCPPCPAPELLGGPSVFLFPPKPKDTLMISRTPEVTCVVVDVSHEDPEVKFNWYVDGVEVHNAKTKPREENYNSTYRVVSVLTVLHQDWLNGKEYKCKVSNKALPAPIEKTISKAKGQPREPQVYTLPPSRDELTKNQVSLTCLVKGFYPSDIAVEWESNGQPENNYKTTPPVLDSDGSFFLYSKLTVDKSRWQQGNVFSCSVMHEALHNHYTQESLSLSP
# light: B1 light
# notes: B3 variant; copies: 2 + 2
# B5: GpH7-B3 Y296K/GpL16-k0 (antibody, human IgG1)
# heavy: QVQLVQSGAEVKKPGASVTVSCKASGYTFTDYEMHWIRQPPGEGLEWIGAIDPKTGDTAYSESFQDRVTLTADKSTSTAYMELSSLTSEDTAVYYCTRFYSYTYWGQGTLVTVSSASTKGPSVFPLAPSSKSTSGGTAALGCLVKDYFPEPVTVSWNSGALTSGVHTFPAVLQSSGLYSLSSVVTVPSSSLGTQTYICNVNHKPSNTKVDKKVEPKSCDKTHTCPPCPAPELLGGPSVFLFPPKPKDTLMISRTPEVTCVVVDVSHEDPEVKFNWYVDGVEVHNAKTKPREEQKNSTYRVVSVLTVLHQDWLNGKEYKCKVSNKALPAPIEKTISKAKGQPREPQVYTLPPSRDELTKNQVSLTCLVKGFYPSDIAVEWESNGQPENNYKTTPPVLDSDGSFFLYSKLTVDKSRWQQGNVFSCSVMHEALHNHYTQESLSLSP
# light: B1 light
# notes: B3 variant; copies: 2 + 2
# B6: GpH7-B3 Y300P/GpL16-k0 (antibody, human IgG1)
# heavy: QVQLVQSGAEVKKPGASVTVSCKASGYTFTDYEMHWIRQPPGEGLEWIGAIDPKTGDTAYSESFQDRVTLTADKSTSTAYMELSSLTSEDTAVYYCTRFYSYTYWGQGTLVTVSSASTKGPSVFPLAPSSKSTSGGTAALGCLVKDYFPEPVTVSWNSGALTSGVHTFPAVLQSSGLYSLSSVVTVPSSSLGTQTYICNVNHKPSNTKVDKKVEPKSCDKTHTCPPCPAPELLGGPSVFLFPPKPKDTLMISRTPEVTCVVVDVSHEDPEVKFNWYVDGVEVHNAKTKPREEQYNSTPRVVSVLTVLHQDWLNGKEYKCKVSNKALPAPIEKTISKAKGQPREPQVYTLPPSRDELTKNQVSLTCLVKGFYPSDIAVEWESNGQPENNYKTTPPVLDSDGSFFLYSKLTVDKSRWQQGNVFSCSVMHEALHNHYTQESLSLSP
# light: B1 light
# notes: B3 variant; copies: 2 + 2
# B7: GpH7-B3 P331R/GpL16-k0 (antibody, human IgG1)
# heavy: not shown
# light: B1 light
# notes: B3 variant; copies: 2 + 2
# B8: GpH7-B3 S298G/GpL16-k0 (antibody, human IgG1)
# heavy: not shown
# light: B1 light
# notes: B3 variant; copies: 2 + 2
# B9: GpH7-B3 Q295W/GpL16-k0 (antibody, human IgG1)
# heavy: not shown
# light: B1 light
# notes: B3 variant; copies: 2 + 2
# B10: GpH7-B3 S324P/GpL16-k0 (antibody, human IgG1)
# heavy: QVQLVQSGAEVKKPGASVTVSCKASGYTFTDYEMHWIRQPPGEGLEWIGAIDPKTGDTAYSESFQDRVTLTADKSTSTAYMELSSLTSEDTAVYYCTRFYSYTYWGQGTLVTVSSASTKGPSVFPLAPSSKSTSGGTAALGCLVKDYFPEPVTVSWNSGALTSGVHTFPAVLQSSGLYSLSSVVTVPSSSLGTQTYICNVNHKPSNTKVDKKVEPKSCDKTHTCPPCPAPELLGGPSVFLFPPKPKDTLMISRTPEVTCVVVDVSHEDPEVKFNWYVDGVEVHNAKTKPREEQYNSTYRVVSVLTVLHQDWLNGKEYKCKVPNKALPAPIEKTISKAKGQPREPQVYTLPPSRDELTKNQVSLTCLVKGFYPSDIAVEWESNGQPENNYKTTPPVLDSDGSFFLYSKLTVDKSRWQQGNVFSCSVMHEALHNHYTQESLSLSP
# light: B1 light
# notes: B3 variant; copies: 2 + 2
# B11: GpH7-B3 Q295G/GpL16-k0 (antibody, human IgG1)
# heavy: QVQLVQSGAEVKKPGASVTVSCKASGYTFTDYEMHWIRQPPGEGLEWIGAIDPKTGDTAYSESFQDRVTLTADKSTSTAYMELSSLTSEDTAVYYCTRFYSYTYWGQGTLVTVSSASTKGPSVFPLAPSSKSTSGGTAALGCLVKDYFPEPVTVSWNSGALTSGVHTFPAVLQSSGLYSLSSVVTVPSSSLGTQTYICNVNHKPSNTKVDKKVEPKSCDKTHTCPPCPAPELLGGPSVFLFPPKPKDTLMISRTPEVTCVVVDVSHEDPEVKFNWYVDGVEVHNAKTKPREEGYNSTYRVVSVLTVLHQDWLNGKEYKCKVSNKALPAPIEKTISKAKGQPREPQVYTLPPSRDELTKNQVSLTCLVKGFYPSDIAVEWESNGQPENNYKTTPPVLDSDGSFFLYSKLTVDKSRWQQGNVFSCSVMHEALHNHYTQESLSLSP
# light: B1 light
# notes: B3 variant; copies: 2 + 2
# B12: GpH7-B3 P329W/GpL16-k0 (antibody, human IgG1)
# heavy: not shown
# light: B1 light
# notes: B3 variant; copies: 2 + 2
# B13: GpH7-B3 Q295F/GpL16-k0 (antibody, human IgG1)
# heavy: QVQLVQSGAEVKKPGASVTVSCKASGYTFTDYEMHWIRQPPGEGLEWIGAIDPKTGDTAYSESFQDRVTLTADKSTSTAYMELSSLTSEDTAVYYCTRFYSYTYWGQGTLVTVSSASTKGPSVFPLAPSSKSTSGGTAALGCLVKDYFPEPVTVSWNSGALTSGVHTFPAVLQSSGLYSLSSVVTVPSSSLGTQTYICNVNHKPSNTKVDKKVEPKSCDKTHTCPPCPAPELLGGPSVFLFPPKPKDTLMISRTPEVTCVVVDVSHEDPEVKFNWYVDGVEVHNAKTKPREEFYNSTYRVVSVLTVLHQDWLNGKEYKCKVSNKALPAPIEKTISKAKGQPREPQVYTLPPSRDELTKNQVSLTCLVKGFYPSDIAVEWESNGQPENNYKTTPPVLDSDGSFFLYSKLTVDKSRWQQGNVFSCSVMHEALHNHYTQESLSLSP
# light: B1 light
# notes: B3 variant; copies: 2 + 2
# B14: GpH7-B3 Q295R/GpL16-k0 (antibody, human IgG1)
# heavy: not shown
# light: B1 light
# notes: B3 variant; copies: 2 + 2
# B15: GpH7-B3 S298R/GpL16-k0 (antibody, human IgG1)
# heavy: not shown
# light: B1 light
# notes: B3 variant; copies: 2 + 2
# B16: GpH7-B3 Y296R/GpL16-k0 (antibody, human IgG1)
# heavy: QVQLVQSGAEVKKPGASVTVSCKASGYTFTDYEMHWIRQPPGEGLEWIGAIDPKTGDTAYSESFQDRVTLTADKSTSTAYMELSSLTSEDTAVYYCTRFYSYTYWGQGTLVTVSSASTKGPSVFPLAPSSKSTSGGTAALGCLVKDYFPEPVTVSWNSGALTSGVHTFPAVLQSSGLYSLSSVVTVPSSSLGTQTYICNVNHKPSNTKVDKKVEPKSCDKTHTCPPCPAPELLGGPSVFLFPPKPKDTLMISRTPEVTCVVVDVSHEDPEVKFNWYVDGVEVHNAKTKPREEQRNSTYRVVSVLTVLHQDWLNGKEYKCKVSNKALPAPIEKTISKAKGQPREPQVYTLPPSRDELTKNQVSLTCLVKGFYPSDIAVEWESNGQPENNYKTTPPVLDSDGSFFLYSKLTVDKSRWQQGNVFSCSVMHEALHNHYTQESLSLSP
# light: B1 light
# notes: B3 variant; copies: 2 + 2
# Target: T1, human FcγRIIb
# Test: SPR, captured antibody;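 further: antibody captured on a sensor chip, Fcγ receptor flowed over at 25 °C, receptor binding normalized to the captured antibody amount and expressed relative to the reference antibody ×100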
row,relative binding activity,Binder
1,-2 % of GpH7-B3/GpL16-k0,B1
2,-3 % of GpH7-B3/GpL16-k0,B2
3,34 % of GpH7-B3/GpL16-k0,B3
4,41 % of GpH7-B3/GpL16-k0,B4
5,45 % of GpH7-B3/GpL16-k0,B5
6,-1 % of GpH7-B3/GpL16-k0,B6
7,55 % of GpH7-B3/GpL16-k0,B7
8,68 % of GpH7-B3/GpL16-k0,B8
9,16 % of GpH7-B3/GpL16-k0,B9
10,36 % of GpH7-B3/GpL16-k0,B10
11,28 % of GpH7-B3/GpL16-k0,B11
12,0 % of GpH7-B3/GpL16-k0,B12
13,30 % of GpH7-B3/GpL16-k0,B13
14,46 % of GpH7-B3/GpL16-k0,B14
15,22 % of GpH7-B3/GpL16-k0,B15
16,52 % of GpH7-B3/GpL16-k0,B16

# Target: T4, human FcγRIa (human, UniProt P12314 16-292, limits assumed)
# T4 construct: also called FcgRIa; hFcgRIa
# Test: SPR, captured antibody;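 further: antibody captured on a sensor chip, Fcγ receptor flowed over at 25 °C, receptor binding normalized to the captured antibody amount and expressed relative to the reference antibody ×100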
# T4 sequence (P12314 16-292 limits assumed): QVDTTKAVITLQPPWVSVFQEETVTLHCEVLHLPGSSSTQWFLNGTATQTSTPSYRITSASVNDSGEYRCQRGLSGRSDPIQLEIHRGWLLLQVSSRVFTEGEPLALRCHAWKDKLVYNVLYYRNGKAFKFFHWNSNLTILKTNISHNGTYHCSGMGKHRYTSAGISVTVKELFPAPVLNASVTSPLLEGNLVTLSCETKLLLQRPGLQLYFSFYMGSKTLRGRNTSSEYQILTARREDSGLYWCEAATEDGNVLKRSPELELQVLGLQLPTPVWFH
row,relative binding activity,Binder
1,43 % of GpH7-B3/GpL16-k0,B1
2,9 % of GpH7-B3/GpL16-k0,B2
3,88 % of GpH7-B3/GpL16-k0,B3
4,99 % of GpH7-B3/GpL16-k0,B4
5,99 % of GpH7-B3/GpL16-k0,B5
6,9 % of GpH7-B3/GpL16-k0,B6
7,95 % of GpH7-B3/GpL16-k0,B7
8,100 % of GpH7-B3/GpL16-k0,B8
9,81 % of GpH7-B3/GpL16-k0,B9
10,91 % of GpH7-B3/GpL16-k0,B10
11,89 % of GpH7-B3/GpL16-k0,B11
12,94 % of GpH7-B3/GpL16-k0,B12
13,99 % of GpH7-B3/GpL16-k0,B13
14,100 % of GpH7-B3/GpL16-k0,B14
15,92 % of GpH7-B3/GpL16-k0,B15
16,100 % of GpH7-B3/GpL16-k0,B16

# Target: T2, human FcγRIIa(H)
# Test: SPR, captured antibody;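 further: antibody captured on a sensor chip, Fcγ receptor flowed over at 25 °C, receptor binding normalized to the captured antibody amount and expressed relative to the reference antibody ×100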
row,relative binding activity,Binder
1,0 % of GpH7-B3/GpL16-k0,B1
2,-1 % of GpH7-B3/GpL16-k0,B2
3,38 % of GpH7-B3/GpL16-k0,B3
4,74 % of GpH7-B3/GpL16-k0,B4
5,66 % of GpH7-B3/GpL16-k0,B5
6,0 % of GpH7-B3/GpL16-k0,B6
7,59 % of GpH7-B3/GpL16-k0,B7
8,43 % of GpH7-B3/GpL16-k0,B8
9,38 % of GpH7-B3/GpL16-k0,B9
10,14 % of GpH7-B3/GpL16-k0,B10
11,41 % of GpH7-B3/GpL16-k0,B11
12,0 % of GpH7-B3/GpL16-k0,B12
13,74 % of GpH7-B3/GpL16-k0,B13
14,94 % of GpH7-B3/GpL16-k0,B14
15,36 % of GpH7-B3/GpL16-k0,B15
16,74 % of GpH7-B3/GpL16-k0,B16

# Target: T3, human FcγRIIa(R)
# Test: SPR, captured antibody;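 further: antibody captured on a sensor chip, Fcγ receptor flowed over at 25 °C, receptor binding normalized to the captured antibody amount and expressed relative to the reference antibody ×100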
row,relative binding activity,Binder
1,-1 % of GpH7-B3/GpL16-k0,B1
2,-2 % of GpH7-B3/GpL16-k0,B2
3,79 % of GpH7-B3/GpL16-k0,B3
4,56 % of GpH7-B3/GpL16-k0,B4
5,70 % of GpH7-B3/GpL16-k0,B5
6,-1 % of GpH7-B3/GpL16-k0,B6
7,64 % of GpH7-B3/GpL16-k0,B7
8,89 % of GpH7-B3/GpL16-k0,B8
9,26 % of GpH7-B3/GpL16-k0,B9
10,34 % of GpH7-B3/GpL16-k0,B10
11,36 % of GpH7-B3/GpL16-k0,B11
12,1 % of GpH7-B3/GpL16-k0,B12
13,46 % of GpH7-B3/GpL16-k0,B13
14,61 % of GpH7-B3/GpL16-k0,B14
15,62 % of GpH7-B3/GpL16-k0,B15
16,77 % of GpH7-B3/GpL16-k0,B16
